Changes are numbered by the printed parent chain.
T1: murine PD-1 protein (murine, UniProt Q02242 25-167, limits assumed)
T1 construct: bought
T1 sequence (looked up): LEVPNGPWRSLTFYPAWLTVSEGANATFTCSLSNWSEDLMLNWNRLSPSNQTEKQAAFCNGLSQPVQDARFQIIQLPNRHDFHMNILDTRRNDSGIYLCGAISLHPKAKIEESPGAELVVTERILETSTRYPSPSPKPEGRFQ

T2: ICOS (UniProt Q9Y6W8 21-140, limits assumed)
T2 construct: bought
T2 sequence (looked up): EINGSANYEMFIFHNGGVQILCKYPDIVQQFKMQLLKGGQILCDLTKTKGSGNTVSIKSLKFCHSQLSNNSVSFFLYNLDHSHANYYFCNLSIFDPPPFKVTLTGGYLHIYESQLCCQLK

B1: NB182 (Fc fusion)
heavy: QVQLVESGGGLVQAGGSLRLSCAASGDTSFISAAGWYRQAPGKERELVAAITNTGITYYPDSVKGRFTISRDNAKNTVYLQMNNLKPEDTAVYYCNAGAPPPGGLGYDESDYWGQGTQVTVSS
notes: not shown: IgG4 constant region of vector pCDNA3.4-IgG4
B2: NB215 (Fc fusion)
heavy: EVQVVESGGGLVQAGDSLRLSCAASGGTISGYEMGWFRQAPGKEREFVAGISRNGRSTGYSDSAKDRFTISRDNAKNTVYLQMNSLKPEDTAVYYCAAGLKADYGDSYVDTSTRNYNYWGQGTQVTVSS
notes: as for B1
B3: NB211 (Fc fusion)
heavy: EVQVVETGGGLAQAGGSLRLSCAASGRTFSGYTVGWYRQSPGKEREFVAAISYSGGSTDYADSVKGRFTISRDNANNTVYLQMGSLKAEDTAVYYCNRVIRGTRDPSIYYVMDYWGKGTLVTVSS
notes: as for B1
B4: NB171 (Fc fusion)
heavy: QVQLVESGGGLVQAGGSLRLSCAASGRTFSSYAMGWFRQALGKEREWIAGVSMSGRTTYYAAPVKDRFTISRDNAKNTVTLQMNSLKPEDTAVYYCAAGRAQAEIPIMRAQEYDSWGQGTQVTVSS
notes: as for B1
B5: NB147 (Fc fusion)
heavy: EVQVVESGGGVVQAGDSLRLSCVASGRTFSSVAMGWFRQAPGKEREFVAAISRSGGSAGYSDSVKDRSTISRDNAKNTVYLQMNSLKPEDTAVYFCAASELDFCSTLGCYDYWGQGIQVTFSS
notes: as for B1
B6: NB173 (Fc fusion)
heavy: QVQLQESGGGLVQAGGSLRLSCAASGRSFNSYAMGWFRQAPGKEREFVAAISQNGGTQGYAEAVKDRFTISRDNTNKVVALQMNSLKPEDTAAYYCAADGDASDISYAPPRDYEYDYWGQGTQVTVSS
notes: as for B1
B7: NB202 (Fc fusion)
heavy: EVQVVESGGGLVQAGGSLRLSCTASGDTRLASAMGWYRQAPGKERELVAAITNSGLTYYADSVEGRFTISRDSAKNTVYLQMNSLKPEDTAVYYCNAGAPPPGGLGYDESDYWGQGTQVTVSS
notes: as for B1
B8: NB223 (Fc fusion)
heavy: EVQLVESGGGLVQAGGSLRLSCAASGRTFSSYGMGWFRQAPGKEREFVAAVNWSNSSAYYADSVKDRFTISSDNAKSTIYLQMNSLKPEDTAVYYCRPYSDYVTYDPDDYDYWGQGTQVTVSS
notes: as for B1
B9: NB532 (Fc fusion)
heavy: QVQLVETGGGLVQAGGSLRLSCAASGRTFSSYNMGWFRQAPGKEREFVAAISWSGGSQGYAAAVKDRFTISRDNAKNTVYLQMNSLKAEDTAVYYCAAKYHSGSYYYTSIRPEEYDYWGQGTQVTVSS
notes: as for B1
B10: NB222 (Fc fusion)
heavy: QVQLVESGGGLVQAGGSLRLSCAASGGTFSNFNVGWFRQAPGKEREFVAASNWSAGTTHYSDSVKGRFTISRDNAANTAYLQMNSLRPDDTAVYYCNRVIRGTTYPDVYYGMDYWGKGTLVTVSS
notes: as for B1
B11: NB734 (Fc fusion)
heavy: QVQLVETGGGLVQAGGSLRLSCAASGDTILFSAVGWHRQAPGKERELVAAITNSGVTYYADSVKGRFSISRDNAKNTVYLQMNSLKPEDTAVYYCNAGAPPPGEFGYDESDYWGQGTQVTVSS
notes: as for B1
B12: NB220 (Fc fusion)
heavy: QVQLQESGGGLLQAGDSLRLSCIVSGRTFSSYAIGWFRQAPGKEREFVAGINWSGRSQYYSESVKDRFTVSIDNAKNTVYLQMNSLKPEDTAVYYCAAERHLGVPTVRDDEYDDWGQGTQVTVSS
notes: as for B1
B13: NB194-P29-z10 (Fc fusion)
heavy: ELQLVESGGGLVQPGGSLRLSCAASGHSFSIYDMGWFRQAADKERESVAVINFGRGTTYYAESVKGRFTISRDNAKNTVYLQMNSLRAEDTAVYSCGIDRRQYGLGIPPLADHWGQGSQVTVSS
notes: as for B1
B14: NB194-P29-z5 (Fc fusion)
heavy: B13 heavy with E1Q, L2V, A23S, A41P
notes: as for B1
B15: NB194-P29-z1 (Fc fusion)
heavy: B13 heavy with E1Q, L2V, A23S
notes: as for B1
B16: NB194-P29-z7 (Fc fusion)
heavy: B13 heavy with E1Q, L2V, A23S, R72L
notes: as for B1
B17: NB194-P29-z4 (Fc fusion)
heavy: B13 heavy with E1Q, L2V, A23T
notes: as for B1
B18: NB194-P29-z9 (Fc fusion)
heavy: B13 heavy with E1Q, L2V, A23S, H27F, S28T
notes: as for B1
B19: NB194-P29-z2 (Fc fusion)
heavy: B13 heavy with E1Q, A23S
notes: as for B1
B20: NB194-P29-z3 (Fc fusion)
heavy: B13 heavy with E1Q, L2V, R19T, A23S
notes: as for B1
B21: NB194-P29-z6 (Fc fusion)
heavy: B13 heavy with E1Q, L2V, A23S, D42G
notes: as for B1
B22: NB194-P29-z8 (Fc fusion)
heavy: B13 heavy with E1Q, L2V, A23S, A41P, D42G
notes: as for B1
B23: NB194-z5 (Fc fusion)
heavy: B13 heavy with L2V, H27R, S28P, A41P, F53L, G54S, T57N, E62D, I98V, S118T
notes: format not restated; not shown: IgG4 constant region of vector pCDNA3.4-IgG4
B24: NB194-z1 (Fc fusion)
heavy: EVQLVESGGGLVQPGGSLRLSCAASGRPFSIYDMGWFRQAPDKERESVAVISLSRGNTYYADSVKGRFTISRDNAKNTVYLQMNSLRAEDTAVYSCGVDRRQYGLGIPPLADHWGQGTQVTVSS
notes: as for B23
B25: NB194-z2 (Fc fusion)
heavy: B24 heavy with N74S
notes: as for B23
B26: NB194-z4 (Fc fusion)
heavy: B24 heavy with S52N, S54A
notes: as for B23
B27: NB182-z4 (Fc fusion)
heavy: B1 heavy with Q1E, A14P, A23S, A49S, A74S, K86R, P87A
notes: as for B23
B28: NB182-z5 (Fc fusion)
heavy: B1 heavy with Q1E, A14P, A23S, A74S, N84S, K86R, P87A, Q118L
notes: as for B23
B29: NB182-z2 (Fc fusion)
heavy: B1 heavy with Q1E, A14P, A23S, A49S, N84S, K86R, P87A
notes: as for B23
B30: NB182-z1 (Fc fusion)
heavy: B1 heavy with Q1E, A14P, A23S, A49S, A74S, N84S, K86R, P87A
notes: as for B23
B31: NB182-z3 (Fc fusion)
heavy: B1 heavy with Q1E, A14P, A23S, A49S, A74S, V78L, K86R, P87A
notes: as for B23

Target: T1, murine PD-1 protein
Experiment: ELISA on coated protein, anti-human Fc HRP

binding result	Binder
no binding (tested: 0.1µg)	B1

Target: T3, CD28 (UniProt P10747 19-152)
T3 construct: bought
Experiment: ELISA on coated protein, anti-human Fc HRP

binding result	Binder
no binding	B1

Target: T4, CTLA-4 (UniProt P16410 36-161, limits assumed)
T4 construct: bought
T4 sequence (P16410 36-161 limits assumed): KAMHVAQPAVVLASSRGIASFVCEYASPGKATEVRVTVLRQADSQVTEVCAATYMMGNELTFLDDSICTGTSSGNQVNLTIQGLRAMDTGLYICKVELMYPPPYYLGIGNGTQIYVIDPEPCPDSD
Experiment: ELISA on coated protein, anti-human Fc HRP

binding result	Binder
no binding	B1

Target: T2, ICOS
Experiment: ELISA on coated protein, anti-human Fc HRP

binding result	Binder
no binding	B1

Target: T5, human PD-1.Fc (human, UniProt Q15116 25-170, limits assumed)
T5 construct: also called PD-1; Fc protein; PD-1.hFc; not shown: human IgG Fc fragment
T5 sequence (Q15116 25-170 limits assumed): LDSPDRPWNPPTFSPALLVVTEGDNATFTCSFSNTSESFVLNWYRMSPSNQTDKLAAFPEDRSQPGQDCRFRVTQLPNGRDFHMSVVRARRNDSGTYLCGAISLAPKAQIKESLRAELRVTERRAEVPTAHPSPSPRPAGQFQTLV
Experiment: SPR, antibody captured on protein A, PD-1.Fc in flow

Kd [nM]	koff [s⁻¹]	kon [M⁻¹ s⁻¹]	Binder
10.4	0.000508	49000	B2
1.33	0.003	2.26e+06	B3
6.21	0.000309	49700	B4
2.75	0.000153	55800	B5
83.1	0.000179	2150	B6
0.328	6.77e-05	206000	B7
6.39	0.000863	135000	B8
7.03	0.00092	131000	B9
0.149	0.000306	2.05e+06	B10
8.67	6.4e-05	7380	B1
0.292	6.88e-05	236000	B11
0.219	0.000323	1.48e+06	B12

Target: PD-1 on GS-J2/PD1 effector cells (UniProt Q15116 25-288, limits assumed)
Sequence (Q15116 25-288 limits assumed): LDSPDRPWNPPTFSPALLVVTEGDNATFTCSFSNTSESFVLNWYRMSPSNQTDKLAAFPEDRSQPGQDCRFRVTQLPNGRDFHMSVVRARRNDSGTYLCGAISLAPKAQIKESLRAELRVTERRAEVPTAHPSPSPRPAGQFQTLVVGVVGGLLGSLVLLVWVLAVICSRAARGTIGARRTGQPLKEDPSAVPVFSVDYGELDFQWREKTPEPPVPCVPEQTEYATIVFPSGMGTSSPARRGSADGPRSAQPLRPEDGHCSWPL
Experiment: cell-based or functional assay

Reporter Gene Assay EC50 (luciferase) [nM]	Binder
16.3	B1

Target: T6, PD-1 (UniProt Q15116 25-170, limits assumed)
T6 construct: also called PD-1 protein
T6 sequence (Q15116 25-170 limits assumed): as the sequence (Q15116 25-170 limits assumed) above
Experiment: SPR; set-up and antigen form not restated

Kd [nM]	koff [s⁻¹]	kon [M⁻¹ s⁻¹]	Binder
0.179	1.74e-05	96800	B13
0.2	2.43e-05	121000	B14
0.263	3.06e-05	117000	B15
0.15	2.18e-05	145000	B16
0.222	2.61e-05	117000	B17
0.406	5.03e-05	124000	B18
0.129	1.66e-05	129000	B19
0.202	3.75e-05	186000	B20
0.268	3.02e-05	113000	B21
0.235	2.54e-05	108000	B22

Target: T7, PD-1.His (UniProt Q15116 25-170, limits assumed)
T7 construct: not shown: His tag
T7 sequence (Q15116 25-170 limits assumed): as above
Experiment: SPR, antibody captured on protein A, PD-1.His in flow

Kd [nM]	koff [s⁻¹]	kon [M⁻¹ s⁻¹]	Binder
0.598	7.92e-05	133000	B23
0.837	0.000107	128000	B24
1.01	9.88e-05	97600	B25
0.586	7.79e-05	133000	B26
15	9.73e-05	6480	B27
14	9.07e-05	6460	B28
8.67	6.4e-05	7380	B1
8.2	4.59e-05	5600	B29
8.25	7.61e-05	9220	B30
11.8	7.11e-05	6000	B31

Source: patent EP4269437A1 (Zhejiang Nanomab Technology Center Co. Ltd., dated 2023)
